# From patent US20260159561A1 (MyNeuroCure Oy, priority 2017, published 2026)
# Key:
# [1] = rat, in vivo, sc
# Description: ^125I-CDNF, ^125I C-CDNF or ^125I C-MANF (all proteins at 106 cpm in 10 μl) were injected subcutaneously to adult male Wistar rats. Animals were perfused with PBS 2 hours later. Radioactivity was analyzed in different brain regions by gamma counter. Data are shown as mean±SEM. The differences between groups were analyzed ANOVA followed by Tukey-Kramers post hoc test.
# [2] = tested on: ER stressed superior cervical ganglia (SCG) sympathetic neurons; assay: Survival of tunicamycin ER-stressed SCG neurons microinjected with expression plasmids; type: cell-based, mouse; conditions: expressed from microinjected plasmids; tunicamycin 2 μM; counted after three days
# Description: (§1) Non-neuronal cells were removed by extensive preplating. Almost pure neurons were cultured in polyornithine/laminin (Sigma)-coated 35-mm plastic dishes in the small-size standard microislands in the Neurobasal medium and B27 supplement (Invitrogen/Gibco) in the presence of 30 ng/ml mouse nerve growth factor (NGF) (Promega) for 5-6 days. NGF was deprived by extensive washing and addition of the function-blocking anti-NGF antibodies (Roche). The neurons were pressure-microinjected with special neuronal microinjection equipment (Hellman et al., 2011; Hamner et al., 2001; Lindholm et al., 2002; Sun et al., 2001; Yu et al., 2003)(Sun et al., 2001; Sun et al., 2003). For the survival assay, all neurons on the microislands were counted in the beginning (initial number) and the end (three days) of the experiment and expressed as % of initial.
# (§2) Microinjection of the sympathetic neurons was performed as described earlier (Yu, L. Y., Jokitalo, E., Sun, Y. F., Mehlen, P., Lindholm, D., Saarma, M., and Arumäe, U. (2003) J. Cell Biol. 163, 987-997). […] Next day tunicamycin (2 μM) was added, and after 3 days the living fluorescent neurons were counted. Living fluorescent (EGFP-expressing or Dextran Texas Red-containing) neurons were “blindly” counted three days later and expressed as percent of initial living fluorescent neurons counted 2-3 hours after microinjection. […]
# rat 6-OHDA model of PD = assay: Neurorestoration study in 6-OHDA model of PD, amphetamine-induced rotations; type: in vivo; conditions: intrastriatal injection 2 weeks after 6-OHDA lesioning; 2, 4, 6 and 8 weeks post-lesion
# Description: In neurorestoration model of PD, rats were lesioned with 6-OHDA as described before (Voutilainen et al., 2009; Voutilainen et al., 2011, Penttinen et al., 2016). Briefly, rats received under isoflurane anesthesia unilateral stereotaxic injections of 3×2 μg 6-OHDA (in 10 degree angle) into the left striatum (coordinates relative to bregma and dura A/P+1.6; L/M −2.8; D/V −6, A/P 0.0: L/M −4.1; D/V −5.5 and A/P −1.2; L/M: −4.5; D/V −5.5). Two weeks later, rats were divided to groups based on their amphetamine-induced rotation results (size of the lesion). […] In the reference experiment after division of rats into groups, osmotic minipumps were inserted subcutaneously and cannula was placed into lesioned striatum. The minipump delivered MANF4 (i.e. MANF peptide CKGC, see WO2013034805), GDNF or vehicle solution into striatum for two weeks after which the minipump and cannula were removed. […] The number of amphetamine-induced (2.5 mg/kg, i.p.) full (360°) ipsi- and contralateral turns were recorded for 120 mins after a 30 min habituation period. The results are expressed as net ipsilateral turns to the lesion side Exclusion criterion was Mean (net rotations)±2×STDEV.
# dopaminergic neurons = assay: Survival of TH-positive dopaminergic neurons in midbrain cultures; type: cell-based; conditions: added to culture medium, 5 days, E13/E13.5 NMRI mouse midbrain floors
# Description: To study the dopamine neurons (Yu et al., 2008; Yu and Arumae, 2008), the midbrain floors were dissected from the ventral mesencephali of 13.5-d-old NMRI strain mouse embryos. Tissues were incubated with 0.5% trypsin (ICN Biomedical), then mechanically dissociated using a large fire-polished Pasteur pipette. […] Same amount of the neurons were plated to each well at the beginning of the experiments. The cultures without added neurotrophic factors served as the negative control. As the midbrain cultures contain several neuronal types, the cultures were fixed and immunostained with the antibodies to tyrosine hydroxylase (TH) (Millipore), a specific marker for the dopaminergic neurons. Images of each well were scanned by CellInsight™ and immunopositive neurons were counted by CellProfiler and CellProfiler analyst software. Data are expressed as a percentage of GDNF-maintained TH-positive neurons. All experiments were repeated at least three times on the independent cultures. The results were expressed as the mean the SEM and were tested for the significance by either one-way ANOVA and Tukey's post hoc test or by two-tailed Student's t-test. The null hypothesis was rejected at P<0.05.
# ER stressed SCG neurons = assay: Survival of tunicamycin ER-stressed SCG neurons microinjected with recombinant protein; type: cell-based, mouse; conditions: recombinant protein microinjected into the cytoplasm; tunicamycin 2 μM; counted after 3 days
# Description: as §1, §2
molecule,measurement,setting,value
"C-CDNF: Human C-CDNF, SEQ ID NO: 4: C-terminal domain of mature CDNF, amino acid 101 to 161; recombinant, Histidine tag at C-terminus (protein, listed as Homo sapiens) KYEKTLDLASVDLRKMRVAELKQILHSWGEECRACAEKTDYVNLIQELAPKYAATHPKTEL",blood-brain-barrier penetration (radioactivity in brain),[1],capable of penetrating neuronal cell membrane as well as the blood-brain-barrier
same,"living fluorescent neurons, percentage of initial neurons",[2],rescue ER stressed superior cervical ganglia (SCG) sympathetic neurons
same,cumulative amphetamine-induced rotations,rat 6-OHDA model of PD,significantly reduces the cumulative amount of amphetamine-induced rotations
same,"TH-positive neurons, percentage of GDNF-maintained neurons",dopaminergic neurons,protects dopaminergic neurons in vitro
same,"living fluorescent neurons, percentage of initial neurons",ER stressed SCG neurons,rescue ER stressed SCG neurons
